The text below walks through data of patent publication US9575076.

The target of experiment [1] is Thyroid Stimulating Hormone (TSH) (UniProt P01215). Briefly: i-STAT sandwich cartridge with TSH; capture beads 5409, detection conjugate T25C.
For experiment [2] the target is unchanged. Briefly: FRET competition on Alexa488-labelled antigen; competitor BHQ-labelled 414B.
Experiment [3] shares this target. Briefly: FRET competition on Alexa488-labelled antigen; competitor BHQ-labelled T25C.
Experiment [4] has as its target Follicle Stimulating Hormone (FSH) (UniProt P01215). Briefly: i-STAT sandwich cartridge, 0.4 mIU/L TSH plus FSH, signal gain over TSH alone; capture 5409, detection T25C.
Experiment [5] addresses Chorionic Gonadotropin (CG) (UniProt P01215). Kind of experiment: i-STAT sandwich cartridge, 0.4 mIU/L TSH plus CG, signal gain over TSH alone; capture 5409, detection ME130.
For experiment [6] the target is unchanged. Briefly: i-STAT sandwich cartridge, 0.4 mIU/L TSH plus CG, signal gain over TSH alone; capture 5409, detection T25C.
In experiment [7] the target is Follicle Stimulating Hormone (FSH) (UniProt P01215). Kind of experiment: i-STAT sandwich cartridge, 0.4 mIU/L TSH plus FSH, signal gain over TSH alone; capture 5409, detection ME130.
Experiment [8] concerns the target Luteinizing Hormone (LH) (UniProt P01215). Briefly: i-STAT sandwich cartridge, 0.4 mIU/L TSH plus LH, signal gain over TSH alone; capture 5409, detection ME130.
In experiment [9] the target is Thyroid Stimulating Hormone (TSH) (UniProt P01215). Briefly: FRET competition on Alexa488-labelled antigen; competitor BHQ-labelled M4.
Experiment [10] has the same target. Briefly: FRET competition on Alexa488-labelled antigen; competitor BHQ-labelled ME130.
For experiment [11] the target is unchanged. Briefly: FRET competition on Alexa488-labelled antigen; competitor BHQ-labelled TSH Ab 544.
For experiment [12], the target named is Follicle Stimulating Hormone (FSH) (UniProt P01215). Kind of experiment: FRET quenching titration, BHQ-10 antibody and Alexa Fluor 488 antigen.
Experiment [13] has as its target Thyroid Stimulating Hormone (TSH) (UniProt P01215). Described as above.
Experiment [14] has as its target Chorionic Gonadotropin (CG) (UniProt P01215). Described as above.
The target in experiment [15] is Luteinizing Hormone (LH) (UniProt P01215). Described as above.
The target of experiment [16] is Thyroid Stimulating Hormone (TSH) (UniProt P01215). Briefly: i-STAT sandwich cartridge with TSH; capture beads 5409, detection conjugate ME130.
Experiment [17] has the same target. Briefly: i-STAT sandwich cartridge with TSH; capture beads 5409, detection conjugate M4.
Experiment [18] shares this target. Kind of experiment: i-STAT sandwich cartridge with TSH; capture beads 5409, detection conjugate TSH Ab 544.
Experiment [19] concerns the target Luteinizing Hormone (LH) (UniProt P01215). Briefly: i-STAT sandwich cartridge, 0.4 mIU/L TSH plus LH, signal gain over TSH alone; capture 5409, detection T25C.
The target in experiment [20] is Thyroid Stimulating Hormone (TSH) (UniProt P01215). Briefly: FRET competition on Alexa488-labelled antigen; competitor BHQ-labelled 5409.
Experiment [21] deals with Follicle Stimulating Hormone (FSH) (UniProt P01215). Kind of experiment: i-STAT sandwich cartridge, 0.4 mIU/L TSH plus FSH, signal gain over TSH alone; capture 414B, detection 5409.
Experiment [22] deals with Luteinizing Hormone (LH) (UniProt P01215). Kind of experiment: i-STAT sandwich cartridge, 0.4 mIU/L TSH plus LH, signal gain over TSH alone; capture 414B, detection 5409.
In experiment [23] the target is Thyroid Stimulating Hormone (TSH) (UniProt P01215). Briefly: i-STAT sandwich cartridge with TSH; capture beads 414B, detection conjugate M4.
Experiment [24] shares this target. Briefly: i-STAT sandwich cartridge with TSH; capture beads 414B, detection conjugate 5409.
The target of experiment [25] is Chorionic Gonadotropin (CG) (UniProt P01215). Briefly: i-STAT sandwich cartridge, 0.4 mIU/L TSH plus CG, signal gain over TSH alone; capture 414B, detection 5409.
Experiment [26] concerns the target Luteinizing Hormone (LH) (UniProt P01215). Briefly: i-STAT sandwich cartridge, 0.4 mIU/L TSH plus LH, signal gain over TSH alone; capture 414B, detection TSH Ab 544.
Experiment [27] deals with Chorionic Gonadotropin (CG) (UniProt P01215). Kind of experiment: i-STAT sandwich cartridge, 0.4 mIU/L TSH plus CG, signal gain over TSH alone; capture 414B, detection TSH Ab 544.
The target of experiment [28] is Thyroid Stimulating Hormone (TSH) (UniProt P01215). Briefly: i-STAT sandwich cartridge with TSH; capture beads 414B, detection conjugate TSH Ab 544.
Experiment [29] has as its target Follicle Stimulating Hormone (FSH) (UniProt P01215). Briefly: i-STAT sandwich cartridge, 0.4 mIU/L TSH plus FSH, signal gain over TSH alone; capture 414B, detection TSH Ab 544.
The target in experiment [30] is Chorionic Gonadotropin (CG) (UniProt P01215). Briefly: i-STAT sandwich cartridge, 0.4 mIU/L TSH plus CG, signal gain over TSH alone; capture ME130, detection 5409.
The target of experiment [31] is Thyroid Stimulating Hormone (TSH) (UniProt P01215). Kind of experiment: i-STAT sandwich cartridge with TSH; capture beads ME130, detection conjugate T25C.
For experiment [32] the target is unchanged. Briefly: i-STAT sandwich cartridge with TSH; capture beads ME130, detection conjugate 5409.
Experiment [33] concerns the target Luteinizing Hormone (LH) (UniProt P01215). Kind of experiment: i-STAT sandwich cartridge, 0.4 mIU/L TSH plus LH, signal gain over TSH alone; capture ME130, detection 5409.
Experiment [34] addresses Thyroid Stimulating Hormone (TSH) (UniProt P01215). Kind of experiment: i-STAT sandwich cartridge with TSH; capture beads ME130, detection conjugate M4.
The target in experiment [35] is Follicle Stimulating Hormone (FSH) (UniProt P01215). Briefly: i-STAT sandwich cartridge, 0.4 mIU/L TSH plus FSH, signal gain over TSH alone; capture ME130, detection 5409.
For experiment [36], the target named is Thyroid Stimulating Hormone (TSH) (UniProt P01215). Kind of experiment: i-STAT sandwich cartridge with TSH; capture beads ME130, detection conjugate TSH Ab 544.
Experiment [37] has the same target. Briefly: i-STAT sandwich cartridge with TSH; capture beads M4, detection conjugate TSH Ab 544.
Experiment [38] has the same target. Briefly: i-STAT sandwich cartridge with TSH; capture beads M4, detection conjugate T25C.
The target is the same in experiment [39]. Kind of experiment: i-STAT sandwich cartridge with TSH; capture beads M4, detection conjugate ME130.
Experiment [40] shares this target. Kind of experiment: i-STAT sandwich cartridge with TSH; capture beads M4, detection conjugate 5409.
For experiment [41] the target is unchanged. Briefly: i-STAT sandwich cartridge with TSH; capture beads T25C, detection conjugate 414B.
In experiment [42] the target is Follicle Stimulating Hormone (FSH) (UniProt P01215). Briefly: i-STAT sandwich cartridge, 0.4 mIU/L TSH plus FSH, signal gain over TSH alone; capture T25C, detection 5409.
In experiment [43] the target is Thyroid Stimulating Hormone (TSH) (UniProt P01215). Briefly: i-STAT sandwich cartridge with TSH; capture beads T25C, detection conjugate ME130.
The target of experiment [44] is Luteinizing Hormone (LH) (UniProt P01215). Briefly: i-STAT sandwich cartridge, 0.4 mIU/L TSH plus LH, signal gain over TSH alone; capture T25C, detection 5409.
Experiment [45] addresses Thyroid Stimulating Hormone (TSH) (UniProt P01215). Kind of experiment: i-STAT sandwich cartridge with TSH; capture beads T25C, detection conjugate M4.
Experiment [46] has the same target. Briefly: i-STAT sandwich cartridge with TSH; capture beads T25C, detection conjugate 5409.
For experiment [47] the target is unchanged. Kind of experiment: i-STAT sandwich cartridge with TSH; capture beads T25C, detection conjugate TSH Ab 544.
Experiment [48] has as its target Chorionic Gonadotropin (CG) (UniProt P01215). Briefly: i-STAT sandwich cartridge, 0.4 mIU/L TSH plus CG, signal gain over TSH alone; capture T25C, detection 5409.

One may read the Kd as the concentration at which binding is half-saturated. For “TSH capture mouse monoclonal antibody Biospacific Cat#5409 SPTNE-5”, the electrochemical current in experiment [1] was found to be 34.6 nA; in experiment [16], 53.6 nA; in experiment [17] it was 15.2 nA; in experiment [18], 1.41 nA. Besides, the relative fluorescence in experiment [2] is 0.88 normalized; in experiment [3] it was 0.78 normalized; in [9] it was 0.9 normalized; in [10] it was 0.78 normalized; in experiment [11], 0.93 normalized; in [20], 1 normalized. Moreover, the figures for the FSH CR (%) in experiment [4] and in [7] were 0.65% and 2.43%, respectively. Further, the CG CR (%) in experiment [5] is 0.78%; in experiment [6] it was 0.96%. In addition, the LH CR (%) came out at 10.1% with Luteinizing Hormone (LH) [8] and 3.76% in the experiment with Luteinizing Hormone (LH) [19]. Further, the dissociation constant Kd worked out at 1000 nM in experiment [12], 0.1 nM in [13], 500 nM in [14] and 1000 nM in the experiment with Luteinizing Hormone (LH) [15].

In the case of “Seradyn anti-alpha-LH monoclonal antibody Cat#MIT0414B”, the values for the FSH CR (%) in experiment [21] and in experiment [29] were 260% and 219%, respectively. Besides, the values for the LH CR (%) in the experiment with Luteinizing Hormone (LH) [22] and with Luteinizing Hormone (LH) [26] were 348% and 467%, respectively. Further, the relative fluorescence was determined as 1 normalized in experiment [2]; 0.76 normalized in experiment [3]; 0.75 normalized in experiment [9]; 0.86 normalized in experiment [10]; 0.83 normalized in experiment [11]; 0.81 normalized in [20]. Moreover, the electrochemical current in experiment [23] came out at 41.3 nA; in experiment [24], 40.3 nA; in experiment [28], 10.2 nA. The values for the CG CR (%) in experiment [25] and in experiment [27] were 84.6% and 39.2%, respectively. Further, the Kd in experiment [12] turned out to be 0.1 nM; in experiment [13] it was 0.04 nM; in [14] it was 0.05 nM; in the experiment with Luteinizing Hormone (LH) [15] it was 0.05 nM.

AbCAM ME-130 mouse monoclonal antibody: the relative fluorescence was 0.99 normalized in experiment [2]; 0.88 normalized in [3]; 0.77 normalized in experiment [9]; 1 normalized in [10]; 0.82 normalized in experiment [11]; 0.82 normalized in experiment [20]. Further, the CG CR (%) in experiment [30] is 11.8%. For the same substance, the electrochemical current is -0.1 nA in [31], 54.7 nA in [32], 50.5 nA in experiment [34] and 10.8 nA in experiment [36]. Also, the LH CR (%) with Luteinizing Hormone (LH) [33] worked out at 11.1%. Moreover, in [35], the FSH CR (%) amounted to 3.9%. For the same substance, the Kd is 70 nM in [12], 0.04 nM in [13], 45 nM in experiment [14] and 54 nM with Luteinizing Hormone (LH) [15].

As to “Fitzgerald 10C-CR2151M4 mouse monoclonal antibody”, the electrochemical current in experiment [37] stood at 0 nA; in experiment [38], 22.5 nA; in experiment [39] it was 39.9 nA; in experiment [40], 20.7 nA. Besides, the relative fluorescence in [2] came out at 0.9 normalized; in experiment [3], 0.74 normalized; in experiment [9], 1 normalized; in experiment [10] it was 0.76 normalized; in [11], 0.98 normalized; in experiment [20], 0.94 normalized. Further, the dissociation constant Kd in experiment [12] was determined as 210 nM; in [13], 0.18 nM; in experiment [14] it was 554 nM; with Luteinizing Hormone (LH) [15], 300 nM.

“signaling mouse monoclonal antibody Fitzgerald Cat#10-T25C”: the electrochemical current in experiment [41] amounted to 0.82 nA; in experiment [43], 0.68 nA; in [45], 40.9 nA; in [46], 49.7 nA; in [47], 0.83 nA. Also, the relative fluorescence in [2] was 0.97 normalized; in [3] it was 1 normalized; in experiment [9], 0.92 normalized; in [10], 0.97 normalized; in experiment [11], 0.97 normalized; in experiment [20], 0.95 normalized. The FSH CR (%) in [42] worked out at 6.25%. Moreover, the LH CR (%) with Luteinizing Hormone (LH) [44] came to 9.89%. Besides, the Kd worked out at 300 nM in [12], 0.08 nM in experiment [13], 40 nM in experiment [14] and 35 nM in the experiment with Luteinizing Hormone (LH) [15]. Further, the CG CR (%) in experiment [48] amounted to 13.7%.
